Molecular target: the molecule itself
Assay: native gel or EMSA

B1: PII Δ47−53 (deletion of the apex of the T-loop) (natural protein, Escherichia coli, UniProt P0A9Z1 1-112, looked up)
chain: MKKIDAIIKPFKLDDVREALAEVGITGMTVTEVKGFGRQKGHTELYDFLPKVKIEIVVPDDIVDTCVDTIIRTAQTGKIGDGKIFVFDVARVIRIRTGEEDDAAI
B1: binds.
